Reference: US20250179160A1

Assays:
[1] = biological target: recombinant human Pro-Factor D (human) (UniProt P00746); assay: ELISA: antibody titrated 3-fold from 3 ug/ml on plate coated with 1 ug/ml recombinant human pro-Factor D; HRP anti-mouse, rat or human secondary; OD450
[2] = biological target: recombinant human mature Factor D (human) (UniProt P00746); assay: ELISA: antibody titrated 3-fold from 3 ug/ml on plate coated with 1 ug/ml recombinant human mature Factor D; HRP anti-mouse, rat or human secondary; OD450

EC50 (read off the curve) [1]: 0.02 µg/mL
EC50 (read off the curve) [2]: 0.04 µg/mL
Substance: MAB18241 (antibody)
